In patent US20030096379A1, “Method for producing tryptamine derivatives” (priority 2001, published 2003):

Columns and labels:
[1] = target: T1, E. coli DH5α tryptophan synthase (TrpBA) (Escherichia coli, UniProt P0A879); type: biochemical; design: key: +: a clear ninhydrin-positive spot at the Rf of standard tryptophan derivatives after 16-65 h; (+): a weak spot in the product region; −: no product observed; NR: experiment not run; details: indole derivative + L-serine + PLP, 37° C., 16-65 h, ninhydrin
T1 construct: made in house; host or cells: E. coli LMG194 (pBAD) or BL-21 (pET)
Description: (§1) A mixture containing 2 μmole of the indole derivative, 0.05 μmole of PLP and 50 μmol of L-serine in 40 mM KPi buffer in 8% v/v ethanol water, pH 7.5, was warmed to 37° C., then enzyme solution was added to give a final volume of 1 mL. Aliquots (100 μL) were quenched at intervals of 2, 6, and 24 hours or more in microcentrifuge capsules containing 25 μL of 6 M HCl. The quenched samples were evaporated in a Savant Speed-vac. The residues were resuspended in methanol/water (1:1, 50 μL) and analyzed by TLC on Silica gel GF254 plates alongside tryptophan and tryptamine standards, eluting with CH2Cl2/EtOH/H2O/HOAc 77:20:2:1. Products were visualized first by using short-wave UV light, then with ninhydrin spray reagent (1/1/98 w/v/v ninhydrin/HOAc/EtOH) followed by heating.
(§2) Substituted indoles were incubated with L-serine, PLP and enzyme (TrpBA or TnA) prior to TLC analysis as generally described in Example 6. Serine, which can be used instead of pyruvate and ammonia for tryptophan synthesis with TnA, was employed as the 3-carbon acid because pyruvate tended to obscure the tryptophan product spots when plates were visualized with ninhydrin. TnA-catalyzed formation of tryptophan was also faster when serine was the 3-carbon donor. Reaction rates for several substrates were also estimated by HPLC.
(§3) In Table 4, “+” indicates a clear ninhydrin-positive spot at the Rf of standard tryptophan derivatives after 16-65 h; “(+)” indicates a weak spot in the product region; “−” means no product observed, “NR” means experiment not run. ESMS=electrospray mass spectrometry. Unless otherwise indicated, the mass value given represents the singly-protonated molecular ion (M+1).

TnA = target: T2, TnA (Escherichia coli, UniProt P0A853); test: Relative rates of tryptophan derivative synthesis by HPLC, TnA; type: biochemical, E. coli; details: initial rate estimated by HPLC, indole = 100%, L-serine as the 3-carbon substrate
T2 construct: made in house; host or cells: E. coli LMG194 (pBAD) or BL-21 (pET)
Description: (§4) Aliquots (100 μL) were removed and quenched by addition of to 300 μL of 0.5 M sodium citrate, pH 3.0 in 10% v/v acetonitrile/water in 2 ml microcentrifuge tubes. Following centrifugation for 10 min at 13,000×g, the supernatants were passed through 0.45μ membrane filters prior to HPLC analysis of 20 μL of filtrate.
(§5) TnA reactions were run with L-serine as the 3-carbon substrate.

TrpBA and TDC1 = test: Coupled enzyme synthesis monitored by HPLC; type: biochemical; details: L-serine, PLP, pH 8.5 phosphate buffer, 37° C.
Description: To a solution containing L-serine (25 μmol), pyridoxal phosphate (0.05 μmol) and TrpBA (0.02 to 1.5 units, depending on the substrate), TDC1 (0.2 mL 0.6 units) and KPi buffer (0.05 mmol, pH 7.5) in a volume of 0.8 mL were added […] of 5 mM indole derivative in 20% v/v ethanol/water. The mixture was incubated at 37° C. and aliquots were quenched and analyzed as described for Example 8. In cases where tryptamine and/or tryptophan standards were not available, peaks were collected for mass spectral analysis. Electrospray mass spectral analyses were performed.
Mixtures containing indole, L-serine, PLP and TDC1 were incubated in pH 8.5 phosphate buffer, analyzing aliquots by HPLC, as described in Example 12.
The procedure used in Example 24 was carried out by substituting indole with 2-methylindole, 4-hydroxymethylindole, 5-methoxy-, 5-hydroxymethyl-, 5-methoxycarbonyl, and 5,6-dimethoxyindole.

tryptophanase (TnA) = target: T3, tryptophanase (TnA) (Escherichia coli, UniProt P0A853); type: biochemical, E. coli; design: key: +: a clear ninhydrin-positive spot at the Rf of standard tryptophan derivatives after 16-65 h; (+): a weak spot in the product region; −: no product observed; NR: experiment not run; details: indole derivative + L-serine + PLP, 37° C., 16-65 h, ninhydrin
T3 construct: made in house; host or cells: E. coli LMG194 (pBAD) or BL-21 (pET)
Description: as §1, §2, §3

TrpBA = target: T4, TrpBA (Escherichia coli, UniProt P0A879); test: Relative rates of tryptophan derivative synthesis by HPLC, TrpBA; type: biochemical, E. coli; design: key: **: rate too slow to quantitate; details: initial rate estimated by HPLC, indole = 100%
T4 construct: made in house; host or cells: E. coli LMG194 (pBAD) or BL-21 (pET)
Description: as §4, with “Reaction mixtures were prepared as in Example 6 and were incubated at 37° C. Aliquots” for “Aliquots”
as §5

[2] = Decarboxylase activity of the enzyme preparations (Ehrlich's reagent); type: biochemical
Description: (§6) Tryptophan synthase activity was assayed by monitoring the increase in absorbance at 290 nm of a mixture containing serine, indole and PLP (Higgins, W., et al., Biochemistry, 1979, 18, 4827). TnA-catalyzed tryptophan synthesis was also measured by the 290 nm assay, while the tryptophan lyase reaction rate was measured by monitoring the reduction in NADH in reaction mixtures containing L-tryptophan and lactate dehydrogenase, indicating the amount of pyruvate released. Tryptophan decarboxylase was assayed colorimetrically by monitoring the sabsorbance at 580 nm produced by serotonin (AAADs) or tryptamine (TDCs) following treatment of reaction aliquots with Ehrlich's reagent (4-N,N-(dimethyl)aminobenzaldehyde in ethanolic HCl; Nakazawa, H.; Kumagi, H.; Yamada, H. Biochem Biophys. Res. Commun., 1974, 61, 75-82). Serotonin could be detected with approximately 5-fold higher sensitivity by this method as compared with tryptamine. The Ehrlich reagent assay using a microtiter plate format for simultaneous analysis of multiple enzyme samples may also be used. HPLC analysis was performed on acid-quenched reaction aliquots by using a base-deactivated C8 reversed-phase support (Shandon Hypersil BD8). HPLC analysis of acid-quenched aliquots permitted calculation of a rate ratio of 4.5 to 1 for pkAAAD-catalyzed DOPA decarboxylation relative to that of L-5-hydroxytryptophan, in good agreement with the accepted ratio of approximately 5:1. (See Sourkes, T. L. Methods Enzymol., 1987, 142, 170-178, which is incorporated herein by reference.)
A mixture (0.95 mL) containing L-5-hydroxytryptophan (2 mM), PLP (0.25 mM) and pH 7.5 KPi buffer (44 mM) was warmed to 37° C., then 50 μL of enzyme was added. Reaction aliquots were quenched in microcentrifuge capsules containing 50 μL each of 6M HCl to quench the enzyme reaction at 2, 5, and 20 min. Quenched aliquots were heated at 50° C. for 40 min with 750 μL each of Ehrlich's reagent (2:24:74 w/v/v […]: conc HCl: ethanol). Absorbance was read at 580-nm and compared with standards of serotonin (10-250 μM) or tryptamine (50 to 2000 μM).
Decarboxylase enzyme activity was determined using L-5-hydroxytryptophan as the substrate unless otherwise stated.

[3] = pH-rate profiles for tryptophan-metabolizing enzymes; type: biochemical; details: for activity over the entire optimum pH range shown by TrpBA: pH 7.5 to 9.5
Excerpt: Both AAADs TDC1 and TDC2 were active over the entire optimum range shown by TrpBA. These broad activity ranges make it clear that the coupled enzyme process is not limited by pH.

[4] = Tryptophan synthase activity of the enzyme preparation (290 nm assay); type: biochemical, E. coli
Description: as §6
Reaction mixtures were prepared as in Example 6 in polymethacrylate or quartz spectrophotometer cuvettes, and the increase absorbance were measured immediately at 290 nm, assuming a change in extinction coefficient for the indole-tryptophan conversion is δ290=1.85 MM−1 cm^−1. For TrpBA, the rate at 37° C. is approximately 2.8 fold higher than at 23° C.
Activity is expressed as μmol product formed per minute, TrpBA activity is reported for the reaction: indole+serine−>tryptophan at room temperature as described in the next section. Tryptophanase is reported for the reaction: tryptophan−>indole+pyruvate+NH4^+ at room temperature. The rate of tryptophan synthesis for TrpBA under our assay conditions is approximately 3-fold higher at 37° C.

[5] = Table 2, L-5-hydroxytryptophan as substrate

Molecule | TrpBA (tryptophan product spot, TLC analysis) [1] | Relative Rate (TnA) (TnA) [%] | TnA (tryptophan product spot, TLC analysis) (tryptophanase (TnA)) | Crude specific activity [2, 5] [units/mg] | Purified specific activity [2, 5] [Units/mg] | Crude specific activity ([2]; Table 3, decarboxylases) [units/mg] | activity over the entire optimum pH range shown by TrpBA [3] | other results
COc1cc2cc[nH]c2cc1OC [5,6-dimethoxy, 5,6-dimethoxyindole] | − | 2.1 | (+) |  |  |  |  | formation of tryptophan derivative and tryptamine (HPLC peaks) (TrpBA and TDC1): a second peak representing formation of tryptamine; Relative rate (TrpBA) (TrpBA): **
c1cc2cc3c(cc2[nH]1)OCO3 [5,6-methylenedioxy-] | − | 1.0 | + |  |  |  |  | Relative rate (TrpBA) (TrpBA; L-serine): 0.018%
TDC1: C. accuminata tryptophan decarboxylase expressed in E. coli DH5α (protein, UniProt P93082 1-502, looked up) Tryptophan decarboxylase TDC1: MGSLDSNYDTESPASVGQFNPLDPEEFRKQAHCIVDFIADYYKNIESYPVLSQVDPGYRHSRLGKNAPYRSEPFESILKDVQKDIIPGMTHWMSPNFFAHFPATVSSAAFVGEMLCTCFNSVGFNWLASPAATELEMVVIDWLANMLKLPKSFMFSGTGGGVLQGTTSEAILCTLIAASPMHFEIVGVKTSTSFVVYGSDQTHSTYAKACKLAGILPCNIRSIPTTADSNFSVSPLLLRRAIEADKAAGMVPLYICATVGTTSTTAIDPLSSLADVANDYGVWFHVDAAYAGSACICPEFRHYLDGIERADSLSLSPHKWLLSYLDCCCLWVKSPSLLVKALSTDPEYLKNQPSESKSVVDYKDWQVGTGRRFKALRLWFVMRSYGVANLQSHIRTDVQMAKMFEGFVKSDPRFEILVPRVFSLVCFRLNPISGSDPTGTEALNRKLLDWVNSTGRVYMTHTKVGGIYMLRFAVGATLTEKRHVSSAWKLIKEGADVLLKED |  |  |  | 0.11 | 0.3 | 0.11 | active | 
TrpBA: wild-type E. coli DH5α tryptophan synthase, E.C.4.2.1.20, α- and β-subunits coexpressed (protein, UniProt P0A877 1-268; P0A879 2-397, looked up) Tryptophan synthase alpha …: MERYESLFAQLKERKEGAFVPFVTLGDPGIEQSLKIIDTLIEAGADALELGIPFSDPLADGPTIQNATLRAFAAGVTPAQCFEMLALIRQKHPTIPIGLLMYANLVFNKGIDEFYAQCEKVGVDSVLVADVPVEESAPFRQAALRHNVAPIFICPPNADDDLLRQIASYGRGYTYLLSRAGVTGAENRAALPLNHLVAKLKEYNAAPPLQGFGISAPDQVKAAIDAGAAGAISGSAIVKIIEQHINEPEKMLAALKVFVQPMKAATRS Tryptophan synthase beta chain: TTLLNPYFGEFGGMYVPQILMPALRQLEEAFVSAQKDPEFQAQFNDLLKNYAGRPTALTKCQNITAGTNTTLYLKREDLLHGGAHKTNQVLGQALLAKRMGKTEIIAETGAGQHGVASALASALLGLKCRIYMGAKDVERQSPNVFRMRLMGAEVIPVHSGSATLKDACNEALRDWSGSYETAHYMLGTAAGPHPYPTIVREFQRMIGEETKAQILEREGRLPDAVIACVGGGSNAIGMFADFINETNVGLIGVEPGGHGIETGEHGAPLKHGRVGIYFGMKAPMMQTEDGQIEESYSISAGLDFPSVGPQHAYLNSTGRADYVSITDDEALEAFKTLCLHEGIIPALESSHALAHALKMMRENPDKEQLLVVNLSGRGDKDIFTVHDILKARGEI |  |  |  |  |  |  |  | percent of the maximum rate ([3]; between pH 7.5 and 9.5, L-serine and indole): at least 90%; rate at 37° C. relative to 23° C. ([4]; 290 nm assay): approximately 2.8 fold; Crude specific activity ([4]; Table 3, TrpBA): 1.2 units/mg; Crude spec activity ([4]; TrpBA, indole+serine->tryptophan, room temperature): 1.2; Purified specific activity ([4]; TrpBA, indole+serine->tryptophan, room temperature, after DEAE cellulose): 2.2 Units/mg; rate of tryptophan synthesis at 37° C. relative to room temperature ([4]; assay conditions of Table 1): approximately 3 fold
TDC2: C. accuminata tryptophan decarboxylase expressed in E. coli DH5α (protein, UniProt P93083 1-498, looked up) Tryptophan decarboxylase TDC2: MGSIDSNYDTESAGQCRPLEPEEFRKQAHQMVDFIADYYKNIESYPVLSQVEPGYLQSRLPETAPYRPEPFESILKDVHKDIIPGVTHWLSPNFFAYFPATVSSAAFVGEMLCTCFNAVGFNWLASPAELELEMVVMDWLASMLKLPNSFTFLGTGGGVIQGTTSEAILCTLIAARDRALESIGVDSIHKLVVYGSDQTHSTYAKACNLAGILPCNIRSIRTEAVANFSLSPDSLHREIEADVAAGMVPLYLCATVGTTSTTAIDSLSPLADVANDYGLWFHVDAAYAGSACICPEFRHYLDGIERADSLSLSPHKWLLSYLDCCCLWVKRPSVLVKALSTDPEYLKNKPSESNSVVDFKDWQVGTGRRFKALRLWFVMRSYGVANLQSHIRSDIQMAKMFEEFVNSDPRFEIVVPRVFSLVCFRLNPFSKSDPCNTELLNRKLLEWVNSTGQVYITHTKVGGVYMLRFAVGATLTEEHHVSAAWKLIREGADALLCS |  |  |  | 0.12 | 0.2 | 0.12 | active | 
